From PMC7968656

Biological target: protrusion protein of OmRV-LZ (N-terminal part of P3, cleaved from the ORF1-encoded precursor) (Omono River virus strain LZ (OmRV-LZ))
Experiment: cryo-EM structure; sub-particle refinement of the protrusion extracted from the virus particles, capsid signal subtracted; first C1, then C5 symmetry; 4.10 Å

In the case of “protrusion protein of OmRV-LZ (N-terminal part of P3, cleaved from the ORF1-encoded precursor) (natural protein)”, the stoichiometry N is reported as 5.
